# Source: PMC4122979 (Bioscience Reports, 2014)
# Molecular target: Human CaM (calmodulin) (human, UniProt P0DP23 1-149)
# Experiment: cell-based or functional assay
row,"inhibition of eNOS L-citrulline formation (100 nM eNOS, 0.5 uM CaM) by 10 uM peptide [%]",Binder
1,87,"TRKKTFKEVANAVKISASLM [Unmodified CBD peptide, T495 (heNOS CaM-binding domain, residues 491-510)]"
2,70,"TRKKAFKEVANAVKISASLM [Phospho-null CBD peptide, A495 (heNOS residues 491-510)]"
3,20,"TRKKDFKEVANAVKISASLM [Phosphomimetic CBD peptide, D495 (heNOS residues 491-510)]"
